# In patent US20210332152A1:
# Columns and labels:
# human IgG (human) = test: SPR (BIAcore T200), peptide immobilised on sensor chip, human IgG injected
# [1] = target: human serum-derived γ-globulin (Sigma-Aldrich) (human); test: column chromatography; 0.5 mg synthetic peptide immobilised on NHS-activated column, 1 mg/mL γ-globulin fed, 10% breakthrough
binder,measurement,setting,value
GPDCAYHRGELVWCTFH [peptide (amino acid sequence: SEQ ID NO: 18) prepared by chemical synthesis],Kd,human IgG (human),14 nM
same,koff,human IgG (human),0.0048 s⁻¹
same,kon,human IgG (human),330000 M⁻¹ s⁻¹
same,dynamic binding capacity (DBC),[1],6.9 mg/mL-column
